T1: QseG-Strep (E. coli K-12, UniProt P0AD44 26-237, Cys26 predicted by the paper to be lipidated)
T1 construct: QseG of E. coli K-12, 237 amino acids as precursor; QseG-Strep was found in the cell envelope fraction; also called lipoprotein QseG; source: E. coli, from plasmid pYG191 (Ptac, IPTG) in strains Z952 and Z986, or from plasmid pYG319 in strain Z970; in lysate; not shown: Strep-tag, C-terminal, kept
T1 sequence (looked up): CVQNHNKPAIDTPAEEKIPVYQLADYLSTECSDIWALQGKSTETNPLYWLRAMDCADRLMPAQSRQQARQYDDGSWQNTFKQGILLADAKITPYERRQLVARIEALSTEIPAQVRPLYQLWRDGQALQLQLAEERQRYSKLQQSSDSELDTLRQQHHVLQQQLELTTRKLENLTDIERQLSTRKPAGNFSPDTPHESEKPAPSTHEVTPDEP


What was measured:
T18-QseE (pYG246) = test: BACTH assay (bacterial two-hybrid, β-galactosidase read-out), homodimerization; settings: reporter strain BTH101; plasmids pYG246/pYG199_TM1; parent: est. 3600; read off a plot
QseG-Strep [1] = biological target: T1, QseG-Strep; test: pull-down; bait and prey from two compatible plasmids in E. coli Z970 (1 mM IPTG, 0.2% arabinose, 3 h); cleared lysates with MagStrep type3 XT beads 60 min at 4°C, washed 4× with buffer W; Western blot; settings: partners not purified
QseG-Strep [2] = biological target: T1, QseG-Strep; test: cell-based or functional assay

fold reduction of co-purifying protein against wild-type QseE-3×FLAG (QseG-Strep [1])	fold decrease in glmY'-lacZ β-galactosidase activity of the ΔqseE strain Z970 complemented with plasmid-encoded QseE-S58N (pYG221-S58N), against wild-type QseE (pYG221) (QseG-Strep [2])	Molecule	response (T18-QseE (pYG246))
–	–	T25-QseE (from UniProt P52101) F19L; L21H; I22R; L23P; L24P	1000 Miller units
~3 fold	3 fold	QseE-S58N-3×FLAG (natural protein, E. coli K-12, UniProt P52101 1-475, looked up, Histidine kinase QseE of E. coli K-12 with the S58N exchange in the periplasmic loop; also called QseE-S58N variant; source: E. coli strain Z970, from plasmid pYG318-S58N, in lysate; not shown: 3×FLAG, C-terminal, kept) MKRWPVFPRSLRQLVMLAFLLILLPLLVLAWQAWQSLNALSDQAALVNRTTLIDARRNEAMTNAALEMERSYRQYCVLDDPTLAKVYQSQRKRYSEMLDAHAGVLPDDKLYQALRQDLHNLAQLQCNNSGPDAAAAARLEAFASANTEMVQATRTVVFSRGQQLQREIAERGQYFGWQSLVLFLVSLVMVLLFTRMIIGPVKNIERMINRLGEGRSLGNSVSFSGPSELRSVGQRILWLSERLSWLESQRHQFLRHLSHELKTPLASMREGTELLADQVVGPLTPEQKEVVSILDSSSRNLQKLIEQLLDYNRKQADSAVELENVELAPLVETVVSAHSLPARAKMMHTDVDLKATACLAEPMLLMSVLDNLYSNAVHYGAESGNICLRSSLHGARVYIDVINTGTPIPQEERAMIFEPFFQGSHQRKGAVKGSGLGLSIARDCIRRMQGELYLVDESGQDVCFRIELPSSKNTK	–

Source: paper PMC6075780, “Interaction of lipoprotein QseG with sensor kinase QseE in the periplasm controls the phosphorylation state of the two-component system QseE/QseF in Escherichia coli” (PLoS Genetics, 2018)
